Assay results as given in ChEMBL document CHEMBL4402607, “Molecular Basis for Omapatrilat and Sampatrilat Binding to Neprilysin-Implications for Dual Inhibitor Design with Angiotensin-Converting Enzyme” (J Med Chem, 2020).

Substrate: N=C(N)NCCC[C@H](NC(=O)[C@H](Cc1ccccc1)NC(=O)[C@@H]1CCCN1C(=O)[C@H](CO)NC(=O)[C@H](Cc1ccccc1)NC(=O)CNC(=O)[C@@H]1CCCN1C(=O)[C@@H]1CCCN1C(=O)[C@@H](N)CCCNC(=N)N)C(=O)O
Assay: Substrate activity at human ACE expressed in CHO cells by HPLC analysis
Assay type: cell-based

B1: Angiotensin-converting enzyme (Homo sapiens), P12821 (protein)
chain: MGAASGRRGPGLLLPLPLLLLLPPQPALALDPGLQPGNFSADEAGAQLFAQSYNSSAEQVLFQSVAASWAHDTNITAENARRQEEAALLSQEFAEAWGQKAKELYEPIWQNFTDPQLRRIIGAVRTLGSANLPLAKRQQYNALLSNMSRIYSTAKVCLPNKTATCWSLDPDLTNILASSRSYAMLLFAWEGWHNAAGIPLKPLYEDFTALSNEAYKQDGFTDTGAYWRSWYNSPTFEDDLEHLYQQLEPLYLNLHAFVRRALHRRYGDRYINLRGPIPAHLLGDMWAQSWENIYDMVVPFPDKPNLDVTSTMLQQGWNATHMFRVAEEFFTSLELSPMPPEFWEGSMLEKPADGREVVCHASAWDFYNRKDFRIKQCTRVTMDQLSTVHHEMGHIQYYLQYKDLPVSLRRGANPGFHEAIGDVLALSVSTPEHLHKIGLLDRVTNDTESDINYLLKMALEKIAFLPFGYLVDQWRWGVFSGRTPPSRYNFDWWYLRTKYQGICPPVTRNETHFDAGAKFHVPNVTPYIRYFVSFVLQFQFHEALCKEAGYEGPLHQCDIYRSTKAGAKLRKVLQAGSSRPWQEVLKDMVGLDALDAQPLLKYFQPVTQWLQEQNQQNGEVLGWPEYQWHPPLPDNYPEGIDLVTDEAEASKFVEEYDRTSQVVWNEYAEANWNYNTNITTETSKILLQKNMQIANHTLKYGTQARKFDVNQLQNTTIKRIIKKVQDLERAALPAQELEEYNKILLDMETTYSVATVCHPNGSCLQLEPDLTNVMATSRKYEDLLWAWEGWRDKAGRAILQFYPKYVELINQAARLNGYVDAGDSWRSMYETPSLEQDLERLFQELQPLYLNLHAYVRRALHRHYGAQHINLEGPIPAHLLGNMWAQTWSNIYDLVVPFPSAPSMDTTEAMLKQGWTPRRMFKEADDFFTSLGLLPVPPEFWNKSMLEKPTDGREVVCHASAWDFYNGKDFRIKQCTTVNLEDLVVAHHEMGHIQYFMQYKDLPVALREGANPGFHEAIGDVLALSVSTPKHLHSLNLLSSEGGSDEHDINFLMKMALDKIAFIPFSYLVDQWRWRVFDGSITKENYNQEWWSLRLKYQGLCPPVPRTQGDFDPGAKFHIPSSVPYIRYFVSFIIQFQFHEALCQAAGHTGPLHKCDIYQSKEAGQRLATAMKLGFSRPWPEAMQLITGQPNMSASAMLSYFKPLLDWLRTENELHGEKLGWPQYNWTPNSARSEGPLPDSGRVSFLGLDLDAQQARVGQWLLLFLGIALLVATLGLSQRLFSIRHRSLHRHSHGPQFGSEVELRHS
  Km: 0.18 µM
